Here are results for five molecules from publication PMC5595344, “Interaction of the cyclic-di-GMP binding protein FimX and the Type 4 pilus assembly ATPase promotes pilus assembly” (PLoS Pathogens, 2017).

One series deals with T1, FimX (Pseudomonas aeruginosa, UniProt Q9HUK6).
T1 construct: dimer in solution (ca. 150 kDa by SEC)
Kind of series: surface plasmon resonance (BIAcore T100), FimX immobilized on CM5 chip. The series is classed as binding.

In the next series the target is PilB (Pseudomonas aeruginosa, UniProt P22608). The note with it: 1 mM ATP; minimal activity.
Series [1] deals with the molecule itself. Description: SEC; Superdex 200 10/300; 50 μM hexameric PilB and 50 μM dimeric FimX or FimX(AAA), 30 min at RT, 25 mM Tris pH 8, 150 mM NaCl, 5 mM MgCl2, 500 μM c-di-GMP; each protein also run alone; fractions on SDS-PAGE.
Series [2] deals with the molecule itself. Kind of series: SEC; preparative SEC after affinity purification; Superdex 200 Increase, 25 mM Tris pH 8.0, 250 mM NaCl, 5 mM MgCl2, 5 mM β-mercaptoethanol.

The molecule `Nc1nc2c(ncn2[C@@H]2O[C@@H]3CO[P@](=O)(O)O[C@H]4[C@@H](O)[C@H](n5cnc6c(=O)[nH]c(N)nc65)O[C@@H]4CO[P@](=O)(O)O[C@H]3[C@H]2O)c(=O)[nH]1` [c-di-GMP] yielded a Kd on FimX of 88 ± 5.6 nM. For `Nc1ncnc2c1ncn2[C@@H]1O[C@H](COP(=O)(O)OP(=O)(O)OP(=O)(O)O)[C@@H](O)[C@H]1O` [ATP], the ATPase activity entry on PilB was “PilB shows minimal ATPase activity in vitro that is not altered by addition of FimX”.

B1: 6X-His tagged FimX (natural protein)
chain: MAIEKKTIRLLILEDSQNEAERLVSLFRNAGHATRVHRLTSPEDLAETLQQSWDLLIAAPTSECLEPGEALATLRRQSRDIPFIQLVADNSSDAITDALMLGAQDALPQGEDERLVLVANRELAGLAERRARRAAELALREAEKRCQLLLDSSVDAITYVHDGMHIYANRSYMALFGYEDAEELEGLPVIDLIASCDQGAFKDFLKGYQNDQRQTELVCTGVKLDGQEFKARISLSAATYDGEPCIQVVIRGEVDNAELEEKLREVSSQDPVTGLYNRSHFLDLMDAAVQQAVTARKPSTLAYIHLNGYPSLQADHGLSGIDLLLGQLAGLMREQFGEEADLARFGDSIFAALFKGKTPEQAQAALQRLLKKVENHLFELNGRSAQATLSIGVAGLDEKTAKAQDVMNRAHRCADDAARKGGSQIKQYNPAEELAAAAQRGDVIAILQQALETNSFRLLFQPVISLRGDSHENYEVLLRLLNPQGQEVPPAEFLHAAKEAGLAEKIDRWVILNSIKLLAEHRAKGHQTKLFVHLSSASLQDPGLLPWLGVALKAARLPPESLVFQISEADATSYLKQAKQLTQGLATLHCQAAISQFGCSLNPFNALKHLTVQFIKIDGSFVQDLNQVENQEILKGLIAELHEQQKLSIVPFVESASVLATLWQAGATYIQGYYLQGPSQAMDYDFSSGDE
notes: also called dimeric FimX; purified FimX; source: purified as 6X-His tagged protein as described previously [17]
On to B1, for which the “stoichiometry N” value in series [1] was found to be 2.

B2: 10XHis-MBP tagged recombinant PilB (natural protein)
chain: MNDSIQLSGLSRQLVQANLLDEKTAVQAQAQAQRNKLSLVTHLVQSKLVSGLALAELSAEQFGIAYCDLNSLDKESFPRDAISEKLVRQHRVIPLWRRGNKLFVGISDPANHQAINDVQFSTGLTTEAILVEDDKLGLAIDKLFESATDGLAGLDDVDLEGLDIGSADKSTQEDASAEADDAPVVRFVNKMLLDAIKGGSSDLHFEPYEKIYRVRFRTDGMLHEVAKPPIQLASRISARLKVMAGLDISERRKPQDGRIKMRVSKTKSIDFRVNTLPTLWGEKIVMRILDSSSAQMGIDALGYEEDQKELYLAALKQPQGMILVTGPTGSGKTVSLYTGLNILNTTDINISTAEDPVEINLEGINQVNVNPRQGMDFSQALRAFLRQDPDVIMVGEIRDLETAEIAIKAAQTGHMVMSTLHTNSAAETLTRLLNMGVPAFNLATSVNLIIAQRLARKLCSHCKKEHEVPRETLLHEGFPEDKIGTFKLYSPVGCDHCKNGYKGRVGIYEVVKNTPALQRIIMEEGNSIEIAEQARKEGFNDLRTSGLLKAMQGITSLEEVNRVTKD
notes: also called hexameric PilB; purified PilB; source: E. coli BL21(DE3), purified (Ni-NTA, amylose resin, SEC)
For the molecule B2, the “stoichiometry N” value in series [2] was found to be 6.

B3: 10XHis-MBP tagged recombinant PilT (natural protein)
chain: MDITELLAFSAKQGASDLHLSAGLPPMIRVDGDVRRINLPPLEHKQVHALIYDIMNDKQRKDFEEFLETDFSFEVPGVARFRVNAFNQNRGAGAVFRTIPSKVLTMEELGMGEVFKRVSDVPRGLVLVTGPTGSGKSTTLAAMLDYLNNTKYHHILTIEDPIEFVHESKKCLVNQREVHRDTLGFSEALRSALREDPDIILVGEMRDLETIRLALTAAETGHLVFGTLHTTSAAKTIDRVVDVFPAEEKAMVRSMLSESLQSVISQTLIKKIGGGRVAAHEIMIGTPAIRNLIREDKVAQMYSAIQTGGSLGMQTLDMCLKGLVAKGLISRENAREKAKIPENF
notes: also called hexameric PilT; source: E. coli BL21(DE3), purified (Ni-NTA, amylose resin, SEC)
For B3, the “stoichiometry N” value in series [2] stood at 6.
